Target: GLI3 (His-tagged; probably zinc-finger fragment) (UniProt P10071 480-632)
Assay: EMSA; dose-dependent shift; 5 mM MgCl2; EMSA: 20 mM Tris-HCl pH 7.5, 50 mM NaCl, 5 mM MgCl2, 0.2 mM EDTA, 1 mM DTT, 1 h at room temperature; 6% native PAGE
Details: protein: recombinant; tags: His; label: biotin; blunt

GLI3 (His-tagged; probably zinc-finger fragment), sequence (P10071 480-632): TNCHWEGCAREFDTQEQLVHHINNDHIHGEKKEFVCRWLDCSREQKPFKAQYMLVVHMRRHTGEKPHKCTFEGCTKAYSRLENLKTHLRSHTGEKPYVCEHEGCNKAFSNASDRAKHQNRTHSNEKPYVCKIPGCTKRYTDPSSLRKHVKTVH

B1: rs72856331-G (dsDNA)
DNA 1: CCCCAAGCAGGGGGTGGCCCCTGAG
DNA 2: CTCAGGGGCCACCCCCTGCTTGGGG
  binding result: binds
